# B1: PhStom (63–234) (domain or fragment, Pyrococcus horikoshii, UniProt O59180 63-234, looked up)
# chain: VDLRTQVLDVPVQETITKDNVPVRVNAVVYFRVVDPVKAVTQVKNYIMATSQISQTTLRSVIGQAHLDELLSERDKLNMQLQRIIDEATDPWGIKVTAVEIKDVELPAGMQKAMARQAEAERERRARITLAEAERQAAEKLREAAEIISEHPMALQLRTLQTISDVAGDKSN
# notes: stomatin PH1511 of Pyrococcus horikoshii, residues 63–234; Initial methionine added before residue 63; In the crystal (8GN9) only residues 64–169 are modelled; the authors consider that residues 170–234 (and so the tag) were degraded during crystallization; source: E. coli BL21 (DE3) Codon-Plus RIL, purified (heat 85 °C, Ni-NTA, Superdex 200 gel filtration)
# B2: PhStom (56–234) K59S (domain or fragment, Pyrococcus horikoshii, UniProt O59180 56-234, looked up)
# chain: IFESAVIVDLRTQVLDVPVQETITKDNVPVRVNAVVYFRVVDPVKAVTQVKNYIMATSQISQTTLRSVIGQAHLDELLSERDKLNMQLQRIIDEATDPWGIKVTAVEIKDVELPAGMQKAMARQAEAERERRARITLAEAERQAAEKLREAAEIISEHPMALQLRTLQTISDVAGDKSN
# notes: stomatin PH1511 of Pyrococcus horikoshii, residues 56–234 with K59S; Initial methionine added before residue 56; PDB 3BK6 is the parent (wild type) of the same limits; also called K59S mutant of PhStom (56–234); K59S mutant; source: E. coli BL21 (DE3) Codon-Plus RIL, purified (heat 85 °C, Ni-NTA, Superdex 200 gel filtration)
# Molecular target: the molecule itself
# Experiment: SEC; Hi Load 16/60 Superdex 200 gel-filtration column, 50 mM Tris-HCl (pH 8.2), 50 mM NaCl, 1 mL/min; approximate molecular mass estimated from the elution of calibration proteins (44–669 kDa)
row,Protein,stoichiometry N
1,B1,2
2,B2,2

# Source: article PMC9663324, “Structural and mutational studies suggest key residues to determine whether stomatin SPFH domains form dimers or trimers” (Biochemistry and Biophysics Reports, 2022)
